Measured values published in a protein production outcome set (Wang et al. 2014).

test: label from the status in PepcDB records
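Note: failed if final PepcDB status was selected cloned or expressed and not failed if soluble or beyond.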

Question: Which protein production does the source give for “MAKIKVMSIFGTRPEAIKMAPLVLALEKEPETFESTVVITAQHREMLDQVLEIFDIKPDIDLDIMKKGQTLAEITSRVMNGINEVIAAENPDIVLVHGDTTTSFAAGLATFYQQKMLGHVEAGLRTWNKYSPFPEEMNRQLTGVMADIHFSPTKQAKENLLAEGKDPATIFVTGNTAIDALKTTVQKDYHHPILENLGDNRLILMTAHRRENLGEPMQGMFEAVREIVESREDTELVYPMHLNPAVREKAMAILGGHERIHLIEPLDAIDFHNFLRKSYLVFTDSGGVQEEAPGMGVPVLVLRDTTERPEGIEAGTLKLIGTNKENLIKEALDLLDNKESHDKMAQAANPYGDGFAANRILAAIKSHFEETDRPEDFIV” here?
Answer: Its protein production is “not failed”.

Question: Which protein production does the source give for “MAKKKNVSVISVEKPTWFPLTDETGAFPVYGAPITIGTAVSIKPDVTTETTPDYGDSVVQDQYVAFGGAEVTLETNGYQNEVLAEITGGKKLKGGVLRSADDIASDGAFAYRRRKSNGKYRYTIFYKGKFALTSDETSTLEGSSVSYTHPEWTGSFVDVPGLGYMYSVDEDDEGVDLEMIKNWFTEVMDPRKENTTAVTGVTLDQTELNLKVGQTATLTPTITPDNASNKKYQFRSESEAIGTVTPIQGKVTAVGEGTTEIVVTTEDGNFTAKCTLNVTTADLEHHHHHH” here?
Answer: The protein production was “failed”.

Question: Which protein production does the source give for “MAKKNKRSQQKNKCLKPEKDPSTVKRLLEDPPRKKRYLQPLENPPTESYGDDEKMETEEEGEKYLGKNLPASAFIIVAAERHDSDSYSETELEKKICGSVVVAKMNDDKMVSTDTKKKYFQRILSDDDKIVLLQGMVDFQNDKGTISYDDMTGFIDTVKNIISFQANSRQFTTKIRRLKDKFVQKRNKGVDENSLANVEIYEI” here?
Answer: Its protein production is “failed”.

Question: With “MAKKTSSKWYSTSAFSRLEKLGLRHPKPSPFIGNLTFFRQGFWESQMELRKLYGPLCGYYLGRRMFIVISEPDMIKQVLVENFSNFTNRMASGLEFKSVADSVLFLRDKRWEEVRGALMSAFSPEKLNEMVPLISQACDLLLAHLKRYAESGDAFDIQRCYCNYTTDVVASVAFGTPVDSWQAPEDPFVKHCKRFFENVELLGTPWLQVYNNFPALLDARILPNKNRDELNGFFNKLIRNVIALRDQQAAEERRRDFLQMVLDARHSASPMGVQDFDIVRDVFSSTGCKPNPSRQHQPSPMARPLTVDEIVGQAFIFLIAGYEIITNTLSFATYLLATNPDCQEKLLREVDVFKEKHMAPEFCSLEEGLPYLDMVIAETLRMYPPAFRFTREAAQDCEVLGQRIPAGAVLEMAVGALHHDPEHWPSPETFNPERFTAEARQQHRPFTYLPFGAGPRSCLGVRLGLLEVKLTLLHVLHKFRFQACPETQVPLQLESKSALGPKNGVYIKIVSRHHHH” as the sequence, how does the protein production read?
Answer: The protein production was “failed”.

Question: With “MAKLVSIIVSVYNKEQFLEKCIESLIDLKMDKNNIEAIFVDDCSTDESVNIIKHYEKDYDFIKLIQLPENTGSPSEPRNIGMREAQGKYITLLDADDWLDKEGFPQVIEKVNKDDADLGFGQSFKHKSKNVKYHARFTSYKEASHLKPQDISKIFRAVGPPGKVFKRSLVMDHHIEFEHMKYGEDKLFFFQLFGKVDDITMSTIPMYHVNRYDENKSLVQQTSMLDKANSNLEVLDRTCHMDMSSELKHMALARMVEVDFISRFLRTKTFIKSADKEKFYAVIEKVERKIKEQGIDINTLITNPVFKQIYTLYHHADESVFVNFTKDVVNDQWRYIIQDGIVFRDFVHQYDMIKPTVVDCYPVYEGTQMMGENKYEVIRVMKPDDINIQSVSLVEINNAANEYEVTYKYSDDRIYVPHEEFEKLNKDININFNVNYGESGRSLVYASYPSFNDVFKMKRQNFKVEFVHKKNENKAQQVTNRKSEYFKRITNPMMTLKKIKIYKDVSFKEEVGSLEAGTRVEASDIQYTSKGTPRLVLDDGSIITANKDFITLINTSGLNKYITEVPKKVKVVKACKLYDSRDFKDNTVRKLKKGDVLTIRDIIYTNNSTPRLVTQEGLFLTANKDFIKIIK” as the sequence, how does the protein production read?
Answer: The protein production was “failed”.

Question: For “MAKNYYDITLALAGICQSARLVQQLAHQGHCDADALHVSLNSIIDMNPSSTLAVFGGSEANLRVGLETLLGVLNASSRQGLNAELTRYTLSLMVLERKLSSAKGALDTLGNRINGLQRQLEHFDLQSETLMSAMAAIYVDVISPLGPRIQVTGSPAVLQSPQVQAKVRATLLAGIRAAVLWHQVGGGRLQLMFSRNRLTTQAKQILAHLTPEL”, which protein production is on record?
Answer: The protein production was “not failed”.

Question: With “MAKQIIVTDSTSDLSHEYLKQHNIHVIPLSLTIDGKSYTDQVDISSSEYIDHIENDADVKTSQPPIGRFIETYEQLAQDDVEIISIHLSSGLSGTYNTAVQASHMVDGNITVIDSKSISFGLGYQIKQIVELISQGTSTEEIVKEMTQLRDNLQLFVVIGQLNQLIKGGRISKTKGLIGNIMKIKPIGTLRDGKLELVHNSRTQNSSVQYLKKEITDFVKDHKIKSIGIAHANVKDFVDKIIKSFTESFDFSQFDINVTTPVISTHTGQGAIGLVVLRDTLN” as the sequence, how does the protein production read?
Answer: Its protein production is “failed”.

Question: With “MAKRKKKEVFDWEDEDQEEIIWVSKSEIKRDAEDLKQLGEKIVNLTKANLAKIPLDESLLDAIELAQRLQKEARRRQLQYIGKLFRGIDVEPIREALDKIENKHNQQQAMLHKIEKVRDELVEKGDVALTDLLNDYPNGDRQQLRNLIRSAQKELEQNKPSKAYREIYQMLKVLMLED” as the sequence, how does the protein production read?
Answer: The protein production was “failed”.

Question: Which protein production does the source give for “MAKRVFIGATGQNCGKTTMSVSLMHLARQKYDRVGFIKPIGPKIEGYNGLTVDMDAILMARTFGLEEDLPLMNPVSLHKNFTRDFLSGKLDCNVLKTKILEAFEILDKKYDFLIIEGAGHGGVGSVIGLSNACVAHTLNAPVIIVTDSGIGSSIDAVHLNLALYEKEDADVRMLLVNKLRADKRESILSFLGKGFPGRPLKISGGFNYSPILANPTLSHIGKLLNLPVHGDPDGQSRIIHHIHLGAASAQRVVDALQESTLIVITSSRDELIVTLSSLYHIPAFREKIVGLVIAGHIPASEISQQILDDSNIPYIRVHDSTANVFTTLMEDVAKITAEDQEKLNWIRANAENEIDFEAIDALLLEHHHHHH” here?
Answer: Its protein production is “failed”.

Question: With “MAKSGSLSIRVVEGRALPAKDVSGSSDPYCLVKVDDEVVARTATIWRSLSPFWGEEYTVHLPLDFHHLAFYVLDEDTVGHDDIIGKISLSKEAITADPRGIDSWINLSRVDPDEEVQGEVCLAVKLLEDARGRCLRCHVRQARDLAPRDISGTSDPFARVFWGSRSLETSTIKKTRFPHWDEVLELREAPGTTSPLRVELWDWDMVGKNDFLGMVEFTPQTLQQKPPNGWFRLLPFPRAEDSGGSLGALRLKVRLTEDRVLPSQYYQPLMELLLESVQGPAEEDTTSPLALLEELASGDCRQDLATKLVKLFLGRGLAGPFLDYLTRREVARTNDPNTLFRSNSLASKSMEQFMKLVGMRYLHEVLRPVISRVFEEKKYMELDPSKMDLNRSRRISFKGTPTEEQVRETSLGLLTGYLGSVVDAIVSSAGRCPLALRLAFKQLQQCVEKRFPGMEHQVGWVLRGLMRIRLKAPCVQCSRCIDXRNRIWGHRRCLPHGELGLLSPLLQAVQSIGNLGQQLGQGKEQWLAPLHPFLLQSISRVRDFLDQLVDVDGDEEAGFPLTKLMECRGVTKEGRVGXGRWSTSXFPAFRRERQERPGGLCCSERSAAWSWRLRLTGRDIAGLTGQWHAVPGRPQVHSSIPLSCIRAVERVDEGAFQLPHVMQVVTQDGTGASHTTYLQCKNVNDLNQWLSALRKASAPNPGKLAACHPGAFRSGRWTCCLQAERSAALSFHLGVLCNLEHVTXFLCASVFSSGKWSSPLDPKAGGAALYLRNQFCLSLSTLRLKLLEDSSLDTAPDVDPGKDSSAVDGPCAEVLAQQREATTRLLQVLEDLEQAHEEFQKRG” as the sequence, how does the protein production read?
Answer: The protein production was “failed”.

Question: Which protein production does the source give for “MAKSVNALINEAIEAGKKRDYKTSILILENLAAEGLAEVSSPFYGEKKGNPEIYLYLSRAWAAVNNYGRSIAYGKAYIKRCSSDPSANSTDLPMGFFFLGRSYLAAGQYDRAVYCLEKSLKLNPHPLETRAMLGSAYLKWKKPRLARETFEEALKFAPSDAKLNAGYLNSLFVEGIYELRNGNADMARQMFSFAIKNGIDGVAPRLYLAHALKMEGYLPEALGQYEAACEFEPDDPALKWYPAMIKMQLGDTTAAAEDFAKLGIEIPDDGVSDRFFAMGVIKKHMERGDYSRAAVAARIFIKTFGSDAEIRLLAAEAQRSMGNTNTALGHYKCALEHEPENPYPHYGIMLALQEAYRWEELSAEILRAEASGVCDADDIYYYKIITAAHIDNPPEEVLPHLQALIQNGRSDSAIFNAMGCCYIKLNMPDLALNWYERALSINEKDEEAKIGIIASYENLQLNKEADEAYNSYLNEWGKNIYIRRDYVLFLEKCERWEDAGNQLEILMSQGKKVNFDPELALFRRKAGQYQKAAILYRKMLRAKPEERLLLHNLVFCLDKMGQTKVSLDLLKAAEKMFGIKTDSMLIKGILQMRLKKKEDAIKTFQYILEKEPKNKHAAEFLEKAYGK” here?
Answer: Its protein production is “failed”.

Question: With “MAKTLNSICFTTLLLVLLFISAEIPTAEANCDTYLGEVTVYYPCRERDCEAQCYEHYPHSCKGECEHHDHVVHHDNEEEHCHCYGR” as the sequence, how does the protein production read?
Answer: The protein production was “failed”.

Question: With “MAKVCYFTGRKTVSGNNRSHAMNKTKRVVKPNLQKVTVLIDGKPKKVWASARALKSGKVERVLEHHHHHH” as the sequence, how does the protein production read?
Answer: The protein production was “failed”.

Question: For “MAKYFDIDDILIEEEFVPVLFHKTANGVTIDPSAETNCVSLLIPSAKAEQGSKVELPFWLAHELHLRQAVTINLPPCFDQKTRLEVQADAAYVDLRSRCPYFYEFGCKIEPLVTDRTLGILLSTAFKIRYKEALTKVYTAAHITASKYLSFLTKEETNLYEAAHLSMTAFKKWRTGGPRFQRASILGRKRKDSN”, which protein production is on record?
Answer: The protein production was “failed”.

Question: For “MAKYKVGMVSLGCDKNRVDSEIMLGMVQNEYELTNNPKEADIIIVNTCGFIEKAKQESINTILDMAKYKTSHNCKLLIATGCLTQRYGDELLELMPEIDIMLGVNDYAKINEAIMNFINGNNEKVKATNYSDVSINEGLRLITTDKATAYLRIAEGCDNFCTYCIIPKIRGKFRSRALESIVEEAKKLAENGVKELILIAQDTTNYGIDIYGEKKLHLVLRELAKIEGIEWIRVLYCYPEAIYDELIKEISVNDKVCNYLDLPIQHISNNVLKRMGRKTTKEEIIGKINDLRKNVPNIVLRTSLIVGFPGESCEDFNELKDFIKTIKLDKVGVFTYSREEGTPAAIMEDQIDEEVKKAREEEIMLLQKEVSEEINKNKVGREYDVLIEKFNGEYYIGRSYEMAPDIDGCIYVKGNGAKKDQFCKVKIEKALEYDLVGVVCNESCKLEHHHHHH”, which protein production is on record?
Answer: The protein production was “failed”.

Question: For “MALAEDDGFYMGVGYQIGGAQQNIDNKGSTLRNNVINNFRQVGVGMAGGNGLLALATNTTMDALLGIGNQIVNTNTTVSNNNAELTQFKKILPQIEQRFETNKNAYSVQALQVYLSNVLYNLVNNSNNGSNNGVVPEYVGIIKVLYGSQNEFSLLATESVVLLNALTRVNLDSNSVFLKGLLAQMQLFNDTSSAKLGQIAENLKNGGAGSMLQKDVKTISDRIATYQENLKQLGGMLKNYDEPYLPQFGPGTSSQHGVINGFGIQVGYKQFFGNKRNIGLRYYAFFDYGFTQLGSLSSAVKANIFTYGAGTDFLWNIFRRVFSDQSLNVGVFGGIQIAGNTWDSSLRGQIENSFKEYPTPTNFQFLFNLGLRAHFASTMHRRFLSASQSIQHGMEFGVKIPAINQRYLRANGADVDYRRLYAFYINYTIGF”, which protein production is on record?
Answer: Its protein production is “failed”.

Question: Which protein production does the source give for “MALAVYLVPLPGLRASGHAALALLVFAVTMWATEAVPLAVTSLIILFAQPLIGVESFENAVIGFANPILFLMIGGFIMAEAIRKSGLAQRFTYYLLGRLGTSPERGLFVSIFSTGLLSAWIENVVAFAMLLPIIKEIVDIMGCSEPEKGKSNYAKAMILGASFGSLAGGFGTEIGTAPNLMAAAYTSIPFLNWMIFGLPLSIAMLLVTWFLLMRIFPSEVRALENGDALIGERIRMMGSMSRDEKLSAGILLFAILLWVTAGFTGINSYSVSLIAAVMFIFAGVITWKDAQKNIDWGLVVFFGGALSLGSALLKTGAAAWIIDKLVGMLGSDPSTVIVMLVLMAVAVIITQVMSNIALSAILVPLSVTLASAQHQPIGVYAVPVAIACSLSFMLPMADPTVAMAYGSGYVKLRDIPRAGIPIIAVGIILTVLVITTLAAPFIS” here?
Answer: Its protein production is “failed”.

Question: Which protein production does the source give for “MALEQTLKKDWYSILGADPSANMSDLKQKYQKLILLYHPDKQSADVPAGTMEECMQKFIEIDQAWKILGNEETKKKYDLQR” here?
Answer: Its protein production is “not failed”.
